From patent US20050244864A1, “Development and use of fluorescent probes of unbound analytes” (priority 2004, published 2005)
Substitutions are numbered along the chain they refer to. Names and notes keep the numbering of the source. Read-outs that look alike come from different tables or passages of the source.

Tests used:
[1] = Probe fluorescence ratio response to linolenate:BSA complex, relative to ADIFAB2 (ΔR/ΔRAD2); format: binding; conditions: fluorescence response (R-Ro) relative to ADIFAB2, linolenate
How it was run: (§1)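 Mutant probes were screened against fatty acid:BSA complexes made by adding fatty acid sodium salts at pH 11 to BSA in HEPES, titrated until ADIFAB2 gave ΔR ≈0.4 ([FFAu] 100–1000 nM). Wells held 6 μM BSA; excitation 375 nm, emission 550/457 nm, background-subtracted.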

[2] = Probe fluorescence ratio response to palmitoleate:BSA complex, relative to ADIFAB2 (ΔR/ΔRAD2); format: binding
[3] = Probe fluorescence ratio response to oleate:BSA complex, relative to ADIFAB2 (ΔR/ΔRAD2); format: binding; conditions: fluorescence response (R-Ro) relative to ADIFAB2, oleate
How it was run: as §1

[4] = Probe fluorescence ratio response to stearate:BSA complex, relative to ADIFAB2 (ΔR/ΔRAD2); format: binding
[5] = Mutant probe screening: baseline fluorescence ratio Ro and fatty acid response phenotype; format: binding; conditions: 7 FFA: AA, LNA, LA, OA, PA, POA, SA
Experimental: The intensity ratio (“R” value) for a given probe is determined. The ratio is calculated using the following formula: R=Fλ1/Fλ2 wherein, Fλ1, is the measured fluorescence intensities (intensity of sample with probe present minus intensity of sample without probe present) at wavelength 1 and Fλ2 is the measured fluorescence intensities (intensity of sample with probe present minus intensity of sample without probe present) at wavelength 2. Then, for a given probe, ΔR, the difference in R value between the measurement in the presence of the analyte and in the absence of the analyte, is calculated as follows: ΔR=R+analyte−R0 The ΔR value for a given probe is then compared to a reference probe, for example, ADIFAB or ADIFAB2, by ΔR/ΔRreference. […] Measurements of fluorescence intensities are obtained using standard techniques.
Plates were prepared and read in two stages. […] The background fluorescence was then measured at the same wavelengths as used for ADIFAB2 using a Fluorolog-3 spectrofluorometer with an external Micromax 384 fluorescence plate reader (Jobin Yvon). In the second stage, 30 μL aliquots of the mutant probes were added to multiple wells of the plate, one for each fatty acid and one with fatty acid free BSA only, and the fluorescence intensity at each wavelength was again measured on the plate reader. […]

[6] = Probe fluorescence ratio response to palmitate:BSA complex, relative to ADIFAB2 (ΔR/ΔRAD2); format: binding; conditions: fluorescence response (R-Ro) relative to ADIFAB2, palmitate
How it was run: as §1

[7] = Probe fluorescence ratio response to arachidonate:BSA complex, relative to ADIFAB2 (ΔR/ΔRAD2); format: binding; conditions: fluorescence response (R-Ro) relative to ADIFAB2, arachidonate
How it was run: as §1

[8] = Probe fluorescence ratio response to linoleate:BSA complex, relative to ADIFAB2 (ΔR/ΔRAD2); format: binding; conditions: fluorescence response (R-Ro) relative to ADIFAB2, linoleate
How it was run: as §1

[9] = Titration of UCB and probe mixture with sodium oleate; format: binding; conditions: mixture of 0.5 μM UCB and 1 μM probe; after 1 μM total oleate added (FIG. 4)
Experimental: (§2) Larger preparations of select probes were prepared for quantitative determination of binding affinities. Binding isothermns were performed by measuring the fluorescence intensity for 1 μM of a given probe as the probe was titrated with known quantities of UCB. […] Table 3 lists the Kd values and mutations for some example probes. […] This property was confirmed by titration of a mixture of 0.5 μM UCB and 1 μM L2P14F7 with sodium oleate. […] Oleic acid is the most abundant FFA in serum, and measurements of normal serum samples indicate that typical unbound concentrations of oleic acid are less than 1 nM. By using non-responsive probes from FFA screening to conduct a secondary screening with other unbound analytes, a UCB-sensitive probe that has a negligible response to the major FFA in blood has been generated from a rI-FABP-L72A mutant.

[10] = Probe response to plasma samples from healthy adult donors, with and without 5 μM UCB
Experimental: The response of L2P14F7 to plasma samples from healthy adult donors, for which the UCBu concentration is expected to be about 1 nM or less, was measured (FIG. 5). Samples were diluted to 1% by volume in pH 7.4 HEPES buffer.

[11] = Binding isotherm: probe titrated with UCB, Kd
Experimental: as §2

[12] = Screening of FFA-insensitive probes for response to UCB:BSA complexes (ΔI/Io); format: binding; conditions: fractional change in fluorescence intensity; for ΔI/Io 1:1 UCB:BSA 440 nm / ΔI/Io 1:1 UCB:BSA 500 nm: UCB:BSA 1:1; for ΔI/Io 1:1 UCB:BSA 440 nm / ΔI/Io 1:2 UCB:BSA 440 nm: emission 440 nm; for ΔI/Io 1:1 UCB:BSA 500 nm / ΔI/Io 1:2 UCB:BSA 500 nm: emission 500 nm; for ΔI/Io 1:2 UCB:BSA 440 nm / ΔI/Io 1:2 UCB:BSA 500 nm: UCB:BSA 1:2
Experimental: A probe for unbound unconjugated bilirubin (UCBu) was developed and used to measure concentrations of UCBu in plasma spiked with a defined quantity of unconjugated bilirubin (UCB). Using 384-well plates, 335 mutant probes that were insensitive to FFA were screened for their response to UCB:BSA complexes at UCB:BSA ratios of 1:1 and 1:2 in aqueous buffer. All probes were prepared from rI-FABP-L72A with 1 to 5 mutations. Screening was conducted by comparing the fractional change in fluorescence intensity (ΔI/Io, where ΔI is the difference in probe intensity in the presence and absence of UCB and Io is the intensity in the absence of UCB) for the probes with that for ADIFAB2. This value was calculated for two emission wavelengths: 440 and 500 nm. […] The emitted fluorescence of these probes is quenched by binding of UCB.

[13] = fluorescence response (R-Ro) relative to ADIFAB2
[14] = fluorescence response (R-Ro) relative to ADIFAB2, listed as L2P12G9
[15] = fluorescence response (R-Ro) relative to ADIFAB2, listed as L2P21C1
[16] = UCB, at 22° C., read-out: Kd (nM) at 22° C.

B1: L2P12 G9: acrylodan-labeled rI-FABP-L72A mutein: M18 L, G31 WT, F55 WT, A73 V (protein, UniProt P02693 2-132, looked up, variant M18L L72A A73V)
Fatty acid-binding protein, …: AFDGTWKVDRNENYEKFLEKMGINVVKRKLGAHDNLKLTITQEGNKFTVKESSNFRNIDVVFELGVDFAYSAVDGTELTGTWTMEGNKLVGKFKRVDNGKELIAVREISGNELIQTYTYEGVEAKRIFKKE
modifications: acrylodan label
notes: acrylodan-labeled rI-FABP-L72A mutein: M18 L, G31 WT, F55 WT, A73 V
Question: With B1 as the molecule, how does the “ΔR/ΔRAD2 LNA” value [1] read?
Answer: 0.01

Question: And the “ΔR/ΔRAD2 LNA” value ([1]; listed as L2P12G9)?
Answer: 0.0

Question: And the “ΔR/ΔRAD2 POA” value [2, 13]?
Answer: −0.01

Question: And the “ΔR/ΔRAD2 POA” value [2, 14]?
Answer: 0.0

Question: And the “ΔR/ΔRAD2 OA” value [3]?
Answer: 0.07

Question: What about the “ΔR/ΔRAD2 OA” value ([3]; listed as L2P12G9) of the same molecule?
Answer: 0.0

Question: And the “ΔR/ΔRAD2 SA” value [4, 13]?
Answer: 0.48

Question: And the “ΔR/ΔRAD2 SA” value [4, 14]?
Answer: 0.4

Question: And the “phenotype (fatty acid response) relative to ADIFAB2” value [5]?
Answer: response only for AA and SA

Question: And the “ΔR/ΔRAD2 PA” value [6]?
Answer: 0.03

Question: And the “ΔR/ΔRAD2 PA” value ([6]; listed as L2P12G9)?
Answer: 0.0

Question: And the “ΔR/ΔRAD2 AA” value [7]?
Answer: 0.54

Question: What about the “ΔR/ΔRAD2 AA” value ([7]; listed as L2P12G9) of the same molecule?
Answer: 0.5

Question: What about the “ΔR/ΔRAD2 LA” value [8] of the same molecule?
Answer: −0.07

Question: And the “ΔR/ΔRAD2 LA” value ([8]; listed as L2P12G9)?
Answer: −0.1

B2: L2P21 C1: acrylodan-labeled rI-FABP-L72A mutein: M18 I, G31 Y, F55 WT, A73 V (protein, UniProt P02693 2-132, looked up, variant M18I G31Y L72A A73V)
Fatty acid-binding protein, …: B1 Fatty acid-binding protein, … with L18I, G31Y
modifications: acrylodan label
notes: acrylodan-labeled rI-FABP-L72A mutein: M18 I, G31 Y, F55 WT, A73 V
Question: Which “ΔR/ΔRAD2 LNA” value [1] does the source give for B2 here?
Answer: 3.73

Question: What about the “ΔR/ΔRAD2 LNA” value ([1]; listed as L2P21C1) of the same molecule?
Answer: 3.1

Question: What about the “ΔR/ΔRAD2 POA” value [2, 13] of the same molecule?
Answer: 3.52

Question: And the “ΔR/ΔRAD2 POA” value [2, 15]?
Answer: 2.9

Question: And the “ΔR/ΔRAD2 OA” value [3]?
Answer: 3.20

Question: What about the “ΔR/ΔRAD2 OA” value ([3]; listed as L2P21C1) of the same molecule?
Answer: 2.7

Question: And the “ΔR/ΔRAD2 SA” value [4, 13]?
Answer: 2.02

Question: What about the “ΔR/ΔRAD2 SA” value [4, 15] of the same molecule?
Answer: 1.6

Question: What about the “phenotype (fatty acid response) relative to ADIFAB2” value [5] of the same molecule?
Answer: greater response for all 7 FFA

Question: And the “ΔR/ΔRAD2 PA” value [6]?
Answer: 2.54

Question: What about the “ΔR/ΔRAD2 PA” value ([6]; listed as L2P21C1) of the same molecule?
Answer: 2.0

Question: And the “ΔR/ΔRAD2 AA” value [7]?
Answer: 3.27

Question: What about the “ΔR/ΔRAD2 AA” value ([7]; listed as L2P21C1) of the same molecule?
Answer: 2.8

Question: What about the “ΔR/ΔRAD2 LA” value [8] of the same molecule?
Answer: 4.04

Question: And the “ΔR/ΔRAD2 LA” value ([8]; listed as L2P21C1)?
Answer: 3.4

B3: L2P14F7: UCB probe from rI-FABP-L72A; mutations 18G 31 M 72A (protein, UniProt P02693 2-132, looked up, variant M18G G31M L72A)
Fatty acid-binding protein, …: B1 Fatty acid-binding protein, … with L18G, G31M, V73A
modifications: fluorescent label
notes: UCB probe from rI-FABP-L72A; mutations 18G 31 M 72A
Question: Which “response on titration with sodium oleate” value [9] does the source give for B3 here?
Answer: no change in response

Question: What about the “response to plasma samples” value ([10]; healthy adult donors, samples diluted to 1% by volume in pH 7.4 HEPES buffer) of the same molecule?
Answer: Little to no response

Question: What about the “probe fluorescence after spiking plasma samples with UCB” value ([10]; samples A and B spiked with 5 μM UCB) of the same molecule?
Answer: substantial decrease in the fluorescence

Question: And the Kd ([11]; non-linear fit to binding isotherm, 1 μM probe titrated with UCB (FIG. 3), read-out: Kd)?
Answer: 150 nM

B4: L5P16 H4: UCB-responsive probe from rI-FABP-L72A; mutations 126K 73F 72A (protein, UniProt P02693 2-132, looked up, variant L72A A73F R126K)
Fatty acid-binding protein, …: B1 Fatty acid-binding protein, … with L18M, V73F, R126K
modifications: acrylodan label
notes: UCB-responsive probe from rI-FABP-L72A; mutations 126K 73F 72A
Question: For B4, which “ΔI/Io 1:1 UCB:BSA 440 nm” value [12] is on record?
Answer: −0.69

Question: What about the “ΔI/Io 1:1 UCB:BSA 500 nm” value [12] of the same molecule?
Answer: −0.64

Question: And the “ΔI/Io 1:2 UCB:BSA 440 nm” value [12]?
Answer: −0.37

Question: And the “ΔI/Io 1:2 UCB:BSA 500 nm” value [12]?
Answer: −0.31

Question: And the Kd [11, 16]?
Answer: 390 nM

B5: L2P22 B1: UCB-responsive probe from rI-FABP-L72A; mutations 18Y 31V 55V 72A (protein, UniProt P02693 2-132, looked up, variant M18Y G31V F55V L72A)
Fatty acid-binding protein, …: B1 Fatty acid-binding protein, … with L18Y, G31V, F55V, V73A
Question: Which “ΔI/Io 1:1 UCB:BSA 440 nm” value [12] does the source give for B5 here?
Answer: −0.70

Question: And the “ΔI/Io 1:1 UCB:BSA 500 nm” value [12]?
Answer: −0.68

Question: What about the “ΔI/Io 1:2 UCB:BSA 440 nm” value [12] of the same molecule?
Answer: −0.36

Question: And the “ΔI/Io 1:2 UCB:BSA 500 nm” value [12]?
Answer: −0.35

Question: What about the Kd [11, 16] of the same molecule?
Answer: 550 nM
